Laboratory results from paper PMC2879411.

Tests used:
[1] = target: filamentous actin (F-actin), rabbit skeletal muscle (rabbit) (UniProt P68135)
[2] = target: filamentous actin (F-actin), rabbit skeletal muscle (UniProt P68135); assay: inhibition of barbed end elongation from spectrin-actin seeds (pyrenyl-actin), fitted binding curve with 1:1 stoichiometry; conditions: 2 µM G-actin (10% pyrenyl-labeled)
[3] = target: filamentous actin (F-actin), rabbit skeletal muscle (rabbit) (UniProt P68135); remark: listed apart in the source
[4] = target: filamentous actin (F-actin), rabbit skeletal muscle (rabbit) (UniProt P68135); remark: listed apart in the source
[5] = target: GST-fused Eps8(648–821) wild type (mouse) (UniProt Q08509); assay: SEC + other: glycerol gradient sedimentation; Superdex200 10/30 and 10%–40% glycerol gradients (100 mM Tris-HCl pH 8, 500 mM NaCl, 1 mM dithiothreitol, 1 mM EDTA) of purified GST-Eps8(648–821) proteins
[6] = target: AEDANS-labeled monomeric actin (rabbit) (UniProt P68135); assay: other fluorescence titration; competition: 1.5 µM AEDANS-labeled actin, increasing Thymosin β4 with 0, 15 or 30 µM Eps8(648–821) or 0, 10 or 15 µM H1–H2; 0.1 M KCl and 1 mM MgCl2 (high salt); apparent constants

Substance: C-terminal fragment of Ce-EPS-8A (aa 714–917) fused to GST, wild type (domain or fragment)
- Kcap of barbed end inhibition: elongation from spectrin-actin seeds with 2 µM G-actin (10% pyrenyl-labeled) [1]: 108 nM

Substance: C-terminal fragment of Ce-EPS-8A (aa 714–917) fused to GST, wild type Δbund
- other: Kcap [2]: 205 nM

Substance: C-terminal fragment of Ce-EPS-8A (aa 714–917) fused to GST, wild type Δcap
- other: Kcap [2]: 980 nM

Substance: C-terminal fragment of Ce-EPS-8A (aa 714–917) fused to GST, wild type ΔcapΔbund
- other: Kcap [2]: > 4000 nM

Substance: Eps8(648–821)-V689D-L693D (Eps8-Δcap) (from UniProt Q08509 648-821) (domain or fragment)
- Kcap: barbed end elongation from spectrin-actin seeds [3]: 700 nM

Substance: GST-fused Eps8(648–821) wild type (from UniProt Q08509 648-821) (domain or fragment)
- Kcap: barbed end elongation, wild type of Figure 6C [4]: 4 nM
- Kcap: barbed end elongation, wild type of Figure 6D [4]: 16 nM
- stoichiometry N [5]: 2

Substance: GST-fused Eps8-ΔcapΔbund, double H1 and Villin-like motif mutant of Eps8(648–821) (from UniProt Q08509 648-821) (domain or fragment)
- Kcap: barbed end elongation [4]: 4 µM

Substance: Thymosin β4 (peptide)
- Kapp with 10 µM H1–H2 [6]: 6 µM
- Kapp with 15 µM Eps8(648–821) [6]: 9 µM
- Kapp with 15 µM H1–H2 [6]: 11 µM
- Kapp with 30 µM Eps8(648–821) [6]: 14 µM
- Kd [6]: 3000 nM
